Results as given in patent US20240270841A1 (LG CHEM, published 2024).

B1: anti-LILRB1 antibody H11 (antibody, human IgG4 S228P, V domains shown)
VH: QVQLVQSGAEVKKPGASVKVSCKASGYTFTSYYMHWVRQAPGQGLEWMGIINPSGGSTSYAQKFQGRVTMTRDTSTSTVYMELSSLRSEDTAVYYCARDAGSSSDYWGRGTLVTVSS
VL: SYELTQDPAASVALGQTVRITCQGDSLRSYYASWYQQKPGQAPVVVIYGRNNRPSGIPDRFSGSSSGDTASLTITGAQAEDEADYYCKSRDSSGNHYVFGTGTKLTVLG
notes: human IgG4, lambda light chain; also called Antibody clone H11
B2: anti-LILRB1 antibody G11 (antibody, human IgG4 S228P, V domains shown)
VH: QVQLVQSGAEVKKPGESLKISCKGSGYSFTSYWIGWVRQMPGKGLEWMGIIYPGDSDTRYSPSFQGQVTISADKSISTAYLQWSSLKASDTAMYYCASQYYDGGYYMDVWGQGTLVTVSS
VL: QSALTQPRSVSGSPGQSVTISCTGTSSDVGGYNYVSWYQQHPGKAPKLMIYDVSKRPSGVPDRFSGSKSGNTASLTISGLQAEDEADYYCSSYSSSSTLVVFGGGTKLTVLG
notes: human IgG4, lambda light chain; also called Antibody clone G11
B3: anti-LILRB1 antibody H2 (antibody, human IgG4 S228P, V domains shown)
VH: QVQLVQSGAEVKKPGASVKVSCKASGYTFTSYDIHWVRQATGQGLEWMGWISAYNGNTNYAQKLQGRVTMTTDTSTSTAYMELRSLRSDDTAVYYCARDGGDAFDIWGQGTLVTVSS
VL: SYELTQDPAVSVALGQTVRITCQGDSLRNYYASWYQQKPGQAPILVISGNNKRPSGIPDRFSGSSSGDTASLTISGAQAEDEADYYCNSLDSTYNHPIFGGGTKVTVLG
notes: human IgG4, lambda light chain; also called Antibody clone H2
B4: anti-LILRB1 antibody E3.1 (antibody, human IgG4 S228P, lambda)
heavy: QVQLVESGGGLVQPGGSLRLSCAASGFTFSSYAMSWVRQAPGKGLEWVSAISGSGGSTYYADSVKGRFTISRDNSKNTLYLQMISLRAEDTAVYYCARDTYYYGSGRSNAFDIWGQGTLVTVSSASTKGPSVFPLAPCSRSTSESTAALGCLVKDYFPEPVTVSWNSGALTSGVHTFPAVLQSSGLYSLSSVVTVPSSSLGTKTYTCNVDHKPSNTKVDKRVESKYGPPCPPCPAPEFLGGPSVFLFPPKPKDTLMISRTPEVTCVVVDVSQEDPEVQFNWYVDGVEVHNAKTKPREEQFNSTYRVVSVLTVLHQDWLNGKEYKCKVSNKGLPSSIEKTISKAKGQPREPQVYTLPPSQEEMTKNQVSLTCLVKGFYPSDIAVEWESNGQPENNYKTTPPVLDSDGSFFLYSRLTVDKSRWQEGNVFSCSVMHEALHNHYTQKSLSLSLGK
light: SYELTQDPAVSVALGQTVRITCQGDSLRNFYASWYQQKSGQAPVLVMYGKNNRPSGIPDRFSGSTSGNTASLTITGAQAEDEADYYCNSRDSSGSHLTGVFGGGTKVTVLGQPKANPTVTLFPPSSEELQANKATLVCLISDFYPGAVTVAWKADGSPVKAGVETTKPSKQSNNKYAASSYLSLTPEQWKSHRSYSCQVTHEGSTVEKTVAPTECS
notes: human IgG4; heavy chain of E3; also called Antibody clone E3.1

Key:
[1] = molecular target: T1, LILRB1 expressed on the surface of human natural killer cell KHYG-1 (human, UniProt Q8NHL6 24-650); test: flow cytometry (iQue) on KHYG-1 NK cells, antibody 50 ug/mL
T1 construct: whole, on cells; also called LILRB1 on KHYG-1 cells; human NK cells (surface)
Protocol: In order to test whether or not 93 antibodies selected in Example 1.4 bind LILRB1 expressed on surface of immune cells, natural killer cell (NK cell) surface binding assay was performed. A human NK cell, KHYG-1 cell (JCRB) was cultured in RPMI 1640 medium (Gibco) supplemented with 10%(w/v) of FBS (Gibco) and 100 U/mL of interleukin-2 (Novartis). KHYG-1 cells were added to a U-bottom 96-well tissue culture plate (BD Falcon) at the amount of 5×10⁴ cells/well. Each of the selected antibodies was added to the well to the final concentration of 50 μg/mL per well and incubated at 4° C. for 1 hour.
In order to see the level of LILRB1-specific binding of the selected antibodies, a human IgG4 isotype control antibody (Biolegend) was treated in the same manner. After washing with FACS buffer, the cells were treated with an anti-human Fc-biotin antibody (life technologies) and incubated at 4° C. for 1 hour. After washing with FACS buffer, the cells were treated with streptavidin PE (BD Pharmigen) and incubated at 4° C. for 30 minutes. After washing with FACS buffer, the cells were resuspended and subjected to analysis using iQue screener (Sartorius).

[2] = molecular target: T2, human LILRB1 overexpressed on CHO cells (human, UniProt Q8NHL6 24-650); test: flow cytometry (iQue) on CHO cells overexpressing LILRB1, threefold dilutions
T2 construct: Full-length protein expressed from a vector in CHO cells; also called AAH15731
Protocol: In order to determine EC₅₀ values of the antibodies prepared in Examples 1 and 4 for binding to human LILRB1-overexpressing cell lines, a cell surface binding assay was performed. Representing the prepared antibodies, EC₅₀ values of E3.1 and H11 antibodies were measured. The CHO cells prepared in Example 5, which overexpress LILRB1 on surface, were added to U-bottom 96-well tissue culture plate (BD Falcon) at the amount of 1×10⁵ cells/well. Threefold serial dilutions of E3.1 and H11 antibodies were prepared starting from the final concentrations of 600 ug/mL and 27 ug/mL, respectively. The cells were treated with each of the diluted antibodies and incubated at 4° C. for 60 minutes. After washing with FACS buffer, the cells were treated with anti-human Fc-biotin antibody (Invitrogen) and incubated at 4° C. for 30 minutes. After washing with FACS buffer, the cells were treated with streptavidin (BD Pharmigen) labeled with PE fluorescence and incubated at 4° C. for 30 minutes. After washing with FACS buffer, the cells were resuspended and subjected to analysis using iQue screener (Sartorius). EC₅₀ values were calculated using nonlinear regression formula of GraphPad Prism software, and the obtained results are shown in Table 28: […]

[3] = molecular target: T3, human LILRB1 protein (LILRB1-His, RnD systems Cat. No. 8989-T2) (human, UniProt Q8NHL6 24-458); test: SPR (Biacore T200), antibody captured by anti-human IgG (Fc), LILRB1-His injected
T3 construct: Bought protein; also called human LILRB1-His; not shown: His tag
Protocol: The binding affinities of the 93 antibodies, which were selected in Example 1.3, to the antigen, LILRB1, were measured using Biacore T200 (GE healthcare). An anti-human IgG (Fc) antibody (GE healthcare, Cat. No. BR-1008-39, final concentration of 25 μg/mL) was flowed at the flow rate of 5 μL/min for 360 seconds to be immobilized at 5000-7000 RU on Series S Sensor Chip CM5 (GE healthcare, Cat. No. BR-1005-30) using Amine Coupling Kit (GE healthcare, Cat. No. BR-1000-508).

[4] = molecular target: T4, human LILRA6 overexpressed on CHO cells (human, UniProt Q6PI73 24-481); test: flow cytometry (iQue screener), CHO cells overexpressing LILRA6, anti-human Fc-biotin + streptavidin-PE [panel LILRA6]
T4 construct: Full-length protein expressed in CHO cells; also called NP_001347096
Protocol: (§1) In order to confirm whether or not the selected antibodies bind to human LILR family proteins other than LILRB1, a cell surface binding assay was performed. The CHO cells (prepared in Example 5) expressing each of various LILR family proteins on surface were added to U-bottom 96-well tissue culture plate (BD Falcon) at the amount of 1×10⁵ cells/well. The cells in each well were treated with the selected antibody in the final concentration of 20 ug/mL and incubated at 4° C. for 60 minutes. After washing with FACS buffer, the cells were treated with anti-human Fc-biotin antibody (Invitrogen) and incubated at 4° C. for 30 minutes. After washing with FACS buffer, the cells were treated with streptavidin (BD Pharmigen) labeled with PE or FITC fluorescence and incubated at 4° C. for 30 minutes. After washing with FACS buffer, the cells were resuspended and subjected to analysis using iQue screener (Sartorius). The cells treated with each LILR protein specific antibody (Table 27) were used as a positive control, and the cells treated with human IgG4 isotype control antibody (Biolegend) were used as a negative control.

[5] = molecular target: T5, human LILRB4 overexpressed on CHO cells (human, UniProt Q8NHJ6 22-448); test: flow cytometry (iQue screener), CHO cells overexpressing LILRB4, anti-human Fc-biotin + streptavidin-PE [panel LILRB4]
T5 construct: Full-length protein expressed in CHO cells; also called NP_001265355
Protocol: as §1

[6] = molecular target: T6, human LILRA4 overexpressed on CHO cells (human, UniProt P59901 24-499); test: flow cytometry (iQue screener), CHO cells overexpressing LILRA4, anti-human Fc-biotin + streptavidin-PE [panel LILRA4]
T6 construct: Full-length protein expressed in CHO cells; also called NP_036408
Protocol: as §1

[7] = molecular target: T7, human LILRB5 overexpressed on CHO cells (human, UniProt O75023 24-590); test: flow cytometry (iQue screener), CHO cells overexpressing LILRB5, anti-human Fc-biotin + streptavidin-PE [panel LILRB5]
T7 construct: Full-length protein expressed in CHO cells; also called NP_006831
Protocol: as §1

[8] = molecular target: T8, human LILRA5 overexpressed on CHO cells (human, UniProt A6NI73 42-299); test: flow cytometry (iQue screener), CHO cells overexpressing LILRA5, anti-human Fc-biotin + streptavidin-PE [panel LILRA5]
T8 construct: Full-length protein expressed in CHO cells; also called NP_067073
Protocol: as §1

[9] = molecular target: T9, human LILRB3 overexpressed on CHO cells (human, UniProt O75022 24-631); test: flow cytometry (iQue screener), CHO cells overexpressing LILRB3, anti-human Fc-biotin + streptavidin-PE [panel LILRB3]
T9 construct: Full-length protein expressed in CHO cells; also called XP_006726377
Protocol: as §1

[10] = molecular target: T10, human LILRA3 overexpressed on CHO cells (human, UniProt Q8N6C8 24-439); test: flow cytometry (iQue screener, BL1-H channel), CHO cells overexpressing LILRA3, anti-human Fc-biotin + labelled streptavidin [panel LILRA3]
T10 construct: Full-length protein expressed in CHO cells; also called AAH28208
Protocol: as §1

[11] = molecular target: T11, human LILRA1 overexpressed on CHO cells (human, UniProt O75019 17-489); test: flow cytometry (iQue screener), CHO cells overexpressing LILRA1, anti-human Fc-biotin + streptavidin-PE [panel LILRA1]
T11 construct: Full-length protein expressed in CHO cells; also called NP_006854
Protocol: as §1

[12] = molecular target: T12, human LILRB2 overexpressed on CHO cells (human, UniProt Q8N423 22-597); test: flow cytometry (iQue screener), CHO cells overexpressing LILRB2, anti-human Fc-biotin + streptavidin-PE [panel LILRB2]
T12 construct: Full-length protein expressed in CHO cells; also called AAH36827
Protocol: as §1

[13] = molecular target: T13, human LILRA2 overexpressed on CHO cells (human, UniProt Q8N149 24-483); test: flow cytometry (iQue screener), CHO cells overexpressing LILRA2, anti-human Fc-biotin + streptavidin-PE [panel LILRA2]
T13 construct: Full-length protein expressed in CHO cells; also called AAH17412
Protocol: as §1

T1 sequence (Q8NHL6 24-650): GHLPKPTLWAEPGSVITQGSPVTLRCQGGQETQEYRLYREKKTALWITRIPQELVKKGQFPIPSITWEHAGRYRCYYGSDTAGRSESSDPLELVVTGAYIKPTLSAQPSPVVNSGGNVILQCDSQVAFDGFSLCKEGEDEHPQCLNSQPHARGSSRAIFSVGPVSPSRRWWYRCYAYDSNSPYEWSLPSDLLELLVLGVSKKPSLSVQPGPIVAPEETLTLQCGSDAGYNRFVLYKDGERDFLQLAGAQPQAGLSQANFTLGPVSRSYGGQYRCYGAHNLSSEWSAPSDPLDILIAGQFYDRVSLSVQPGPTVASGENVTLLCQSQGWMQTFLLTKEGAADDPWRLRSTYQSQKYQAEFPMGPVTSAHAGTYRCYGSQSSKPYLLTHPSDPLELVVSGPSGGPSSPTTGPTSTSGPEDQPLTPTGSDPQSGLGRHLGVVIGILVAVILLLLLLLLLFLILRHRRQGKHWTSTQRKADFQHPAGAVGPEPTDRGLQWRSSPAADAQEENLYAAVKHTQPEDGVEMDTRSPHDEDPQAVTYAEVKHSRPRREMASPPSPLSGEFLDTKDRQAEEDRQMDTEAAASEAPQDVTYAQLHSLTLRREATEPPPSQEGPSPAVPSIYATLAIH
T3 sequence (Q8NHL6 24-458 limits assumed): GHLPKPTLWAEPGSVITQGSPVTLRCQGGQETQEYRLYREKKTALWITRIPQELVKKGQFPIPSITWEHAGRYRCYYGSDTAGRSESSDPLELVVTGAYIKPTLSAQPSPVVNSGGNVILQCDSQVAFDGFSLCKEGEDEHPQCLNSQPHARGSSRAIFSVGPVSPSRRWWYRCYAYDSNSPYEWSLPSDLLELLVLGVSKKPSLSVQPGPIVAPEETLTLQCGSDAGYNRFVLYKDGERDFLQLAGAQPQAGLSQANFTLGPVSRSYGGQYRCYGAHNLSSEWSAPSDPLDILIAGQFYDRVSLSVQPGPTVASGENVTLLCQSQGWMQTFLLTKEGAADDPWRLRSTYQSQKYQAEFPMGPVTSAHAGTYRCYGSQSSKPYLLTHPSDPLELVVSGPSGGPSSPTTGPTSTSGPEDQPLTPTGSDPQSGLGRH
T10 sequence (Q8N6C8 24-439 A105V limits assumed): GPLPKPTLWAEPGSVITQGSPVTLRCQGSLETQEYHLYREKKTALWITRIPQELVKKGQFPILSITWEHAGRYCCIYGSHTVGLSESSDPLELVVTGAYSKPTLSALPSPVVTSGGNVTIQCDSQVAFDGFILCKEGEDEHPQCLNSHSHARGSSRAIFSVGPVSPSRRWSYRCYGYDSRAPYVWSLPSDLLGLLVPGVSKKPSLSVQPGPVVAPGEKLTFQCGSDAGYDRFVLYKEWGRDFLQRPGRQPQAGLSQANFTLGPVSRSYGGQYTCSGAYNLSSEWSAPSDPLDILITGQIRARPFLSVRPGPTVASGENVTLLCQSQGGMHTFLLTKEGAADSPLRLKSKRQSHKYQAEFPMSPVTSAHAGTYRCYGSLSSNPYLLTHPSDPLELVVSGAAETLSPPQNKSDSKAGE
T8 sequence (A6NI73 42-299 limits assumed): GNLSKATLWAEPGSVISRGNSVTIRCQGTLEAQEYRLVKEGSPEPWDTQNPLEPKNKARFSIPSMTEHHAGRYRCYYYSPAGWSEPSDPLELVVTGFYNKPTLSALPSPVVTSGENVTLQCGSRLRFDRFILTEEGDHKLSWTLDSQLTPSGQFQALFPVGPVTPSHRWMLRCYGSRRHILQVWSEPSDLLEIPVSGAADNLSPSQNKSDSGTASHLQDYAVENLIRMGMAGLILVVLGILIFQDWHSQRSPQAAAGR
T9 sequence (O75022 other isoform, or with tags, fused parts or gaps limits assumed): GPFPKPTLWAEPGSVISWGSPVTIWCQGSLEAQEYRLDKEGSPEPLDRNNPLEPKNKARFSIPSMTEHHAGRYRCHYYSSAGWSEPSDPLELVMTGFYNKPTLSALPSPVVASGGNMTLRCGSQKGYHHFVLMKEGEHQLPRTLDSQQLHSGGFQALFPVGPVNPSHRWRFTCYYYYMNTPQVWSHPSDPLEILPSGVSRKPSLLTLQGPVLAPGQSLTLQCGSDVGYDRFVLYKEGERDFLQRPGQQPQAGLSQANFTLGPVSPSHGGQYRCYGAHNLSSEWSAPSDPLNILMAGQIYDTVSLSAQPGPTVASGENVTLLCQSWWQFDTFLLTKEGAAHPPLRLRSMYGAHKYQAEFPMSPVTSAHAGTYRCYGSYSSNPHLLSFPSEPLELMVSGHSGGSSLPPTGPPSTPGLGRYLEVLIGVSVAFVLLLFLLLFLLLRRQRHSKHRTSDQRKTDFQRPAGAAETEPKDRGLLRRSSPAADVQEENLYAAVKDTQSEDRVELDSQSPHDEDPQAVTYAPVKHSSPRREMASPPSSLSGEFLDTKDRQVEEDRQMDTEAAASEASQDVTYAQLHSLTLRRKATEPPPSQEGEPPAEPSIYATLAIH
T2 sequence (Q8NHL6 other isoform, or with tags, fused parts or gaps limits assumed): as the sequence (Q8NHL6 24-650) above, with L45P, I119T, S132I, E602K counted along it
T5 sequence (Q8NHJ6 22-448 D223G/Q414R limits assumed): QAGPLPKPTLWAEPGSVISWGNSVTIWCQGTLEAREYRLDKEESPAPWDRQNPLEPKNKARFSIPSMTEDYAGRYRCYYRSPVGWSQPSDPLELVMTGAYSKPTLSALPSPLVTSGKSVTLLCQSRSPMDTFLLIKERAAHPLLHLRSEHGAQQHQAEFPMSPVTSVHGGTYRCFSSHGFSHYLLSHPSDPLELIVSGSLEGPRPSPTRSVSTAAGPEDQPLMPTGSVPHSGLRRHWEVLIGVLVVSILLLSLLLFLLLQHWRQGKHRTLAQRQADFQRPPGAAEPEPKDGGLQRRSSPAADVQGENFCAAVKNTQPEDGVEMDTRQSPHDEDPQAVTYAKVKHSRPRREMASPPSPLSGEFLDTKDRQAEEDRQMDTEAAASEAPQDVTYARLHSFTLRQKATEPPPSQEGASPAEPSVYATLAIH
T6 sequence (P59901 other isoform, or with tags, fused parts or gaps limits assumed): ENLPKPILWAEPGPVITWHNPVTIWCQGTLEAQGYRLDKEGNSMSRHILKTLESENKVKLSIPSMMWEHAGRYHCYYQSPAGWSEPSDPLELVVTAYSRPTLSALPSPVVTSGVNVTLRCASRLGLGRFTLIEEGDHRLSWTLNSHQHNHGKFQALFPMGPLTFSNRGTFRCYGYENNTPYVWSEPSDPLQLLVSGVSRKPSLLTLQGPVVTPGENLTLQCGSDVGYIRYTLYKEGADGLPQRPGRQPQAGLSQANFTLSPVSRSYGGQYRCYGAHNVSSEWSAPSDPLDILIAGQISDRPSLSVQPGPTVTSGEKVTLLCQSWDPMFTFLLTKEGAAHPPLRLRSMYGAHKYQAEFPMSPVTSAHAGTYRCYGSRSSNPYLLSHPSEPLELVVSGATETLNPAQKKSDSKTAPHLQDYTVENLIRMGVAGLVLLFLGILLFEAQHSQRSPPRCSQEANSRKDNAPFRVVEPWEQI
T4 sequence (Q6PI73 24-481 limits assumed): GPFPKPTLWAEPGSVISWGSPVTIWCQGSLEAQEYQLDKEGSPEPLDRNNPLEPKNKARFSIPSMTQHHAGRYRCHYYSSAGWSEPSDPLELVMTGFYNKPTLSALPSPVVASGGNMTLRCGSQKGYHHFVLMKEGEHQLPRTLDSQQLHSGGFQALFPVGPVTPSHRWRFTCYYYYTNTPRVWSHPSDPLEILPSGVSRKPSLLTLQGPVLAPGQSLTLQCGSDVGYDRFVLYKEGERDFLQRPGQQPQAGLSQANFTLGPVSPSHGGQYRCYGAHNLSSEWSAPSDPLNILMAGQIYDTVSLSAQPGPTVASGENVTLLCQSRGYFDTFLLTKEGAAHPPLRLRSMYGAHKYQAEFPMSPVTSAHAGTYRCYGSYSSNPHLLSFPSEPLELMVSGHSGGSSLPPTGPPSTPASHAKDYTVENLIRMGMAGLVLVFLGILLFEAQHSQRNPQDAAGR
T7 sequence (O75023 24-590 P542R limits assumed): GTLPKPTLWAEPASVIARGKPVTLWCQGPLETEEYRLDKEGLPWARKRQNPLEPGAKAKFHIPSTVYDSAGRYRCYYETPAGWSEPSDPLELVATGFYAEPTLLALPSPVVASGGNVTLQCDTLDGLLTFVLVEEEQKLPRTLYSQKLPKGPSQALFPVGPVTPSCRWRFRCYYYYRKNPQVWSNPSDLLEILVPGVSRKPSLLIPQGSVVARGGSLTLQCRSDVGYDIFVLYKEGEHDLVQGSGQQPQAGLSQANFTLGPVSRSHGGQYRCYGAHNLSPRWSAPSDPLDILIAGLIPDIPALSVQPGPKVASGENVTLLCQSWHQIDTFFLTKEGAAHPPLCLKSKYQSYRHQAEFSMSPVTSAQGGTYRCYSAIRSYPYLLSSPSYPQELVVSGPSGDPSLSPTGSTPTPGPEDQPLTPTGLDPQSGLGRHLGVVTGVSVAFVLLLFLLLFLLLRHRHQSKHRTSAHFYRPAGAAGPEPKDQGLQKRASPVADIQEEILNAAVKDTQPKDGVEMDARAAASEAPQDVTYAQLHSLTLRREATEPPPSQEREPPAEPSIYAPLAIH

Row | Binder | % of population 2 [1] [%] | Mean Fluorescence Intensity [1] | EC50 [2] [nM] | Kd [3] [nM] | koff [3] [s⁻¹] | kon [3] [M⁻¹ s⁻¹] | binding result [4] | binding result [5] | binding result [6] | binding result [7] | binding result [8] | binding result [9] | binding result [10] | binding result [11] | binding result [12] | binding result [13]
1 | B1 | 32.6 | 245000 | 0.376 | 7.62 | 0.00226 | 296000 | no binding (tested: 20 ug/mL) | no binding (tested: 20 ug/mL) | no binding (tested: 20 ug/mL) | no binding (tested: 20 ug/mL) | no binding (tested: 20 ug/mL) | no binding (tested: 20 ug/mL) | no binding (tested: 20 ug/mL) | – | – | –
2 | B2 | 40.1 | 263000 | – | 45.2 | 0.00205 | 45400 | – | – | – | – | – | – | – | – | – | –
3 | B3 | 29 | 239000 | – | 16.2 | 0.0095 | 586000 | – | – | – | – | – | – | – | – | – | –
4 | B4 | – | – | 7.15 | – | – | – | no binding (tested: 20 ug/mL) | no binding (tested: 20 ug/mL) | no binding (tested: 20 ug/mL) | no binding (tested: 20 ug/mL) | no binding (tested: 20 ug/mL) | no binding (tested: 20 ug/mL) | no binding (tested: 20 ug/mL) | no binding (tested: 20 ug/mL) | no binding (tested: 20 ug/mL) | no binding (tested: 20 ug/mL)
